Experimental data reported in the supplement of paper PMC12783771.
± gives the standard deviation of the averaged measurements.

B1: library; numbered along this chain (parent)
chain: MNIQIGELAKRTACPVVTIRFYEQEGLLPPPGRSRGNFRLYGEEHVERLQFIRHCRSLDMPLSDVRTLLSYRKRPDQDCGEVNMLLDEHIRQVESRIGALLELKHHLVELREACSGARPAQSCGILQGLSDCVCDTRGTTAHPSD

What was measured:
[1] = variants of: B1; assay: sfGFP reporter fluorescence (15 h) (µM FITC); higher = higher leak; details: library round: Round 1; ligand: none
Protocol: (§1)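 Cell-free biosensing: 1 µL Echo-assembled CFE reactions with linear PbrR variant templates (5 nM) and pPbrR-sfGFP reporter, with 1 µM Pb, 30 µM Zn or no ligand; endpoint sfGFP fluorescence after 15 h at 30 °C calibrated as µM FITC. Round 1 ML-predicted PbrR mutants; 3 biological replicates.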

[2] = variants of: B1; assay: sfGFP reporter fluorescence (15 h) (µM FITC); higher = stronger transcriptional activation; details: library round: Round 1
Protocol: as §1

Variant	sfGFP reporter fluorescence [1]	sfGFP reporter fluorescence ([2]; ligand: 1 µM Pb)	sfGFP reporter fluorescence ([2]; ligand: 30 µM Zn)
G128I D135A	0.0699 ± 0.0036	0.12 ± 0.0083	0.64 ± 0.032
P61N C134M	0.102 ± 0.0054	0.233 ± 0.0043	1.53 ± 0.14
N83T D131S P143Y	0.0614 ± 0.0015	0.0782 ± 0.0092	0.144 ± 0.014
N83T D131M D135A	0.0656 ± 0.0024	0.0837 ± 0.0023	0.205 ± 0.011
R96Q	0.0632 ± 0.0037	0.0982 ± 0.0089	0.455 ± 0.0056
V108I D131C	0.0613 ± 0.0026	0.0713 ± 0.0046	0.134 ± 0.0021
D64K R111L	0.06487 ± 0.00064	0.154 ± 0.013	0.898 ± 0.071
D64K R111D	0.0666 ± 0.00092	0.164 ± 0.011	0.682 ± 0.097
N83T L85R	0.061 ± 0.0026	0.0607 ± 0.0035	0.0601 ± 0.0029
P61N R96A	0.0665 ± 0.00092	0.0876 ± 0.0059	0.238 ± 0.024
K104V R111A	0.0644 ± 0.0027	0.096 ± 0.0033	0.356 ± 0.013
K104V R111L	0.0656 ± 0.0016	0.0694 ± 0.0047	0.0976 ± 0.0039
C55L M60L P61N D64K	0.071 ± 0.0012	0.0878 ± 0.0025	0.382 ± 0.0068
D64K N83F	0.0616 ± 0.0024	0.198 ± 0.035	0.143 ± 0.01
D64K N83T	0.0636 ± 0.0021	0.186 ± 0.009	0.695 ± 0.022
L129I D131C	0.0646 ± 0.0017	0.0641 ± 0.0044	0.07 ± 0.0017
I125L D131A D135A	0.065 ± 0.0029	0.0661 ± 0.0051	0.0699 ± 0.0045
N83S P143W	0.0614 ± 0.0019	0.102 ± 0.012	0.556 ± 0.027
M60L P61L	0.0689 ± 0.00037	0.081 ± 0.0019	0.156 ± 0.015
N83S E94D K104A	0.05986 ± 0.00042	0.0734 ± 0.0052	0.422 ± 0.014
N83T L107C	0.1001 ± 0.00064	0.518 ± 0.13	1.53 ± 0.15
N83T L107F	0.06096 ± 0.00056	0.059 ± 0.002	0.0604 ± 0.0011
N83T K104V	0.0623 ± 0.0026	0.113 ± 0.0044	0.249 ± 0.025

Variant	sfGFP reporter fluorescence [1]	sfGFP reporter fluorescence ([2]; ligand: 1 µM Pb)	sfGFP reporter fluorescence ([2]; ligand: 30 µM Zn)
D131A D135A	0.077 ± 0.0023	0.184 ± 0.0043	2.2 ± 0.17
D131A D135P	0.0689 ± 0.0013	0.119 ± 0.0078	0.654 ± 0.017
P61N D64K N83T	0.0684 ± 0.00076	0.232 ± 0.045	0.635 ± 0.034
P61E D64K D131C	0.108 ± 0.0035	0.243 ± 0.036	0.676 ± 0.084
L107C G128I D135A P143K	0.787 ± 0.091	1.52 ± 0.079	2.47 ± 0.14
D64K C79L	0.0594 ± 0.00097	0.05925 ± 0.00021	0.0572 ± 0.00064
D64T L107C	2.07 ± 0.33	2.22 ± 0.12	2.63 ± 0.3
D135A P143T	0.063 ± 0.0013	0.07562 ± 0.00042	0.374 ± 0.028
D135A P143F	0.0621 ± 0.0018	0.0718 ± 0.0013	0.299 ± 0.028
N83M D131A	0.0614 ± 0.0015	0.0845 ± 0.004	0.065 ± 0.0015
L58F K104V	0.0645 ± 0.00097	0.0808 ± 0.00092	0.182 ± 0.024
L126I D135A	0.0632 ± 0.0024	0.064 ± 0.0037	0.152 ± 0.0059
N83S R111C	0.06169 ± 0.00056	0.0672 ± 0.002	0.0665 ± 0.0011
L107C E109Q G128I	0.54 ± 0.0092	1.09 ± 0.29	2.1 ± 0.28
D64K I90C K104V	0.0914 ± 0.0024	0.341 ± 0.073	0.959 ± 0.086
N83M D135A	0.0564 ± 0.0017	0.102 ± 0.0031	0.07 ± 0.0044
N83S K104V	0.064 ± 0.0016	0.121 ± 0.0056	0.405 ± 0.015
V16C K104V	0.0623 ± 0.0024	0.0778 ± 0.0038	0.0911 ± 0.012
N83T D135A	0.06316 ± 0.00056	0.0768 ± 0.0015	0.152 ± 0.0032
D131M D135A	0.0704 ± 0.005	0.0869 ± 0.0074	0.573 ± 0.039
D64T E112I D135A	0.08637 ± 0.00056	0.197 ± 0.029	1.56 ± 0.079
N83Y R111D	0.06194 ± 0.00037	0.0568 ± 0.0025	0.0571 ± 0.0031
Q127S	0.0614 ± 0.00076	0.0649 ± 0.0047	0.118 ± 0.0086

Variant	sfGFP reporter fluorescence [1]	sfGFP reporter fluorescence ([2]; ligand: 1 µM Pb)	sfGFP reporter fluorescence ([2]; ligand: 30 µM Zn)
D64K K104E	0.0882 ± 0.0047	0.31 ± 0.058	1.65 ± 0.039
N83T R111L	0.0571 ± 0.0031	0.0683 ± 0.0036	0.167 ± 0.011
M84A D131H	0.0584 ± 0.0011	0.0712 ± 0.002	0.463 ± 0.061
N83S V108N	0.0632 ± 0.0015	0.0665 ± 0.0043	0.146 ± 0.0045
L107C C134I	0.731 ± 0.13	1.15 ± 0.15	2.12 ± 0.21
N83T E112A	0.0608 ± 0.0013	0.0855 ± 0.0018	0.194 ± 0.022
D64K I97S	0.0966 ± 0.0019	0.216 ± 0.016	1.09 ± 0.074
N83T D131S D135R	0.064 ± 0.0013	0.0955 ± 0.0087	0.21 ± 0.0094
N83T C134A	0.0602 ± 0.0013	0.0716 ± 0.0016	0.162 ± 0.014
L126I D131C	0.0635 ± 0.0019	0.0635 ± 0.0022	0.0699 ± 0.0022
G128L D135A	0.075 ± 0.0011	0.155 ± 0.011	0.981 ± 0.14
D64A K104C	0.115 ± 0.002	0.342 ± 0.031	1.25 ± 0.076
D131C D135A	0.0605 ± 0.0013	0.0742 ± 0.0019	0.221 ± 0.02
L129M P143T	0.0636 ± 0.0011	0.0636 ± 0.0025	0.07306 ± 0.00056
N83V C134S	0.0579 ± 0.00097	0.0667 ± 0.0035	0.055 ± 0.00064
P61T I97N K104V	0.0652 ± 0.0013	0.0689 ± 0.0055	0.169 ± 0.017
P30A V46R	0.0618 ± 0.0011	0.0716 ± 0.0014	0.298 ± 0.024
C79F G128M	0.0586 ± 0.0017	0.0606 ± 0.0011	0.0597 ± 0.00073
D131A D135A P143A	0.0687 ± 0.0035	0.0917 ± 0.0098	0.487 ± 0.043
V108E E109H	0.0605 ± 0.0011	0.0687 ± 0.003	0.224 ± 0.01
L58F P61N	0.0663 ± 0.0015	0.0952 ± 0.0084	0.219 ± 0.02
D64K C114I	0.05986 ± 0.00056	0.0594 ± 0.0011	0.0599 ± 0.0022
G128H P143A	0.061 ± 0.0027	0.0728 ± 0.0023	0.121 ± 0.0099

Variant	sfGFP reporter fluorescence [1]	sfGFP reporter fluorescence ([2]; ligand: 1 µM Pb)	sfGFP reporter fluorescence ([2]; ligand: 30 µM Zn)
D64T D131C	0.143 ± 0.0074	0.359 ± 0.033	1.51 ± 0.07
D64K D131C	0.0864 ± 0.0047	0.282 ± 0.026	0.929 ± 0.032
I90L D135A	0.0614 ± 0.0011	0.0634 ± 0.0038	0.207 ± 0.0065
N83S I90L R111L	0.063 ± 0.0026	0.079 ± 0.0099	0.205 ± 0.021
G128I D131C	0.0762 ± 0.0028	0.146 ± 0.018	0.618 ± 0.011
R91A K104V	0.0657 ± 0.0027	0.119 ± 0.002	0.748 ± 0.029
E43Y P61N	0.0713 ± 0.0038	0.139 ± 0.0038	0.822 ± 0.12
M60L P61N D64K K104V L107E G128I	0.0622 ± 0.0024	0.0589 ± 0.0018	0.0596 ± 0.0016
N83T I97C	0.0623 ± 0.0016	0.063 ± 0.0038	0.109 ± 0.0073
L100V G128I	0.0908 ± 0.0036	0.322 ± 0.035	1.24 ± 0.03
P61L K104V	0.0638 ± 0.00097	0.0617 ± 0.005	0.0765 ± 0.0044
D64K N83T R111L	0.0651 ± 0.0024	0.125 ± 0.0074	0.532 ± 0.049
P30V K104V	0.0683 ± 0.002	0.117 ± 0.0083	0.641 ± 0.092
M60L D64K P143A	0.3527 ± 0.0018	0.945 ± 0.11	2.4 ± 0.12
I97S G128I	0.0694 ± 0.0013	0.136 ± 0.023	0.89 ± 0.023
L110I D135A	0.0608 ± 0.00097	0.0588 ± 0.0053	1.94 ± 0.1
D64T D135R	0.137 ± 0.008	0.29 ± 0.041	1.76 ± 0.28
N83I K104V	0.0628 ± 0.0011	0.356 ± 0.026	0.0679 ± 0.0048
D64T R111A	0.173 ± 0.0098	0.246 ± 0.078	2.17 ± 0.2
N83T H89Q	0.0608 ± 0.0025	0.0955 ± 0.011	0.258 ± 0.013
